# Test results published in PMC4414810 (ACS chemical biology, 2015).
# Where no end group is shown, it is not given here.
# Key:
# [1] = target: T1, HalM2 (haloduracin lanthipeptide synthetase) (Bacillus halodurans C-125); assay: fluorescence polarisation
# [2] = target: T1, HalM2 (haloduracin lanthipeptide …); assay: fluorescence polarisation; remark: listed apart in the source
Binder,IC50 [1] [µM],Ki [1] [µM],Kd [2] [µM]
MTNLLKEWKMPLERTHNNSNPAGDIFQELEDQDILAGIEGR [HalA1 leader peptide],4.1 ± 1.1,4.1 ± 1.1,
MVNSKDLRNPEFRKAQGLQFVDEVNEKELSSLAGSGDIEGR (also: 5-FAM on short synthetic peptide ligated to introduced N-terminal Cys) [fluorescein-labeled HalA2 leader peptide],,,3.7 ± 1.3
